Biological target: the molecule itself
Assay: SEC

Protein | stoichiometry N | binding result
CODANIN-1 F581E/E652A (LOBE2 dimer interface mutant) (natural protein) MAAVLESLLREEVSVAAVVRWIARSTQGSEDNAGEAAALSSLRALRKEFVPFLLNFLREQSSRVLPQGPPTPAKTPGASAALPGRPGGPPRGSRGARSQLFPPTEAQSTAAEAPLARRGGRRRGPGPARERGGRGLEEGVSGESLPGAGGRRLRGSGSPSRPSLTLSDPPNLSNLEEFPPVGSVPPGPTGTKPSRRINPTPVSEERSLSKPKTCFTSPPISCVPSSQPSALDTSPWGLGLPPGCRSLQEEREMLRKERSKQLQQSPTPTCPTPELGSPLPSRTGSLTDEPADPARVSSRQRLELVALVYSSCIAENLVPNLFLELFFVFQLLTARRMVTAKDSDPELSPAVLDSLESPLFQSIHDCVFFAVQVLECHFQVLSNLDKGTLKLLAENERLLCFSPALQGRLRAAYEGSVAKVSLVMPPSTQAVSFQPETDNRANFSSDRAFHTFKKQRDVFYEVLREWEDHHEEPGWDFEKGLGSRIRAMMGQLSAACSHSHFVRLFQKQLLQMCQSPGGAGGTVLGEAPDVLSMLGADKLGRLWRLQERLMAPQSSGGPCPPPTFPGCQGFFRDFILSASSEQFNQHLMDSLSLKIQELNGLALPQHEPNDEDGESDVDWQGERKQFAVVLLSLRLLAKFLGFVAFLPYRGPAPPPTGELQDSILALRSQVPPVLDVRTLLQRGLQARRAVLTVPWLVEFLSFADHVVPLLEYYRDIFTLLLRLHRSLVLSQESEGKMCFLNKLLLLAVLGWLFQIPTVPEDLFFLEEGPSYAFEVDTVAPEHGLDNAPVVDQQLLYTCCPYIGELRKLLASWVSGSSGRSGGFMRKITPTTTTSLGAQPSQTSQGLQAQLAQAFFHNQPPSLRRTVEFVAERIGSNCVKHIKATLVADLVRQAESLLQEQLVTQGEEGGDPAQLLEILCSQLCPHGAQALALGREFCQRKSPGAVRALLPEETPAAVLSSAENIAVGLATEKACAWLSANITALIRREVKAAVSRTLRAQGPEPAARGERRGCSRACEHHAPLPSHLISEIKDVLSLAVGPRDPDEGVSPEHLEQLLGQLGQTLRCRQFLCPPAEQHLAKCSVELASLLVADQIPILGPPAQYRLERGQARRLLHMLLSLWKEDFQGPVPLQLLLSPRNVGLLADTRPREWDLLLFLLRELVEKGLMGRMEIEACLGSLHQAQWPGDFAEELATLSNLFLAEPHLPEPQLRACELVQPNRGTVLAQS | 2 | –
CODANIN-1 F868I/E871R (C-terminal coiled-coil mutant) (natural protein) MAAVLESLLREEVSVAAVVRWIARSTQGSEDNAGEAAALSSLRALRKEFVPFLLNFLREQSSRVLPQGPPTPAKTPGASAALPGRPGGPPRGSRGARSQLFPPTEAQSTAAEAPLARRGGRRRGPGPARERGGRGLEEGVSGESLPGAGGRRLRGSGSPSRPSLTLSDPPNLSNLEEFPPVGSVPPGPTGTKPSRRINPTPVSEERSLSKPKTCFTSPPISCVPSSQPSALDTSPWGLGLPPGCRSLQEEREMLRKERSKQLQQSPTPTCPTPELGSPLPSRTGSLTDEPADPARVSSRQRLELVALVYSSCIAENLVPNLFLELFFVFQLLTARRMVTAKDSDPELSPAVLDSLESPLFQSIHDCVFFAVQVLECHFQVLSNLDKGTLKLLAENERLLCFSPALQGRLRAAYEGSVAKVSLVMPPSTQAVSFQPETDNRANFSSDRAFHTFKKQRDVFYEVLREWEDHHEEPGWDFEKGLGSRIRAMMGQLSAACSHSHFVRLFQKQLLQMCQSPGGAGGTVLGEAPDVLSMLGADKLGRLWRLQERLMAPQSSGGPCPPPTFPGCQGFFRDFILSASSFQFNQHLMDSLSLKIQELNGLALPQHEPNDEDGESDVDWQGERKQFAVVLLSLRLLAKFLGFVAFLPYRGPEPPPTGELQDSILALRSQVPPVLDVRTLLQRGLQARRAVLTVPWLVEFLSFADHVVPLLEYYRDIFTLLLRLHRSLVLSQESEGKMCFLNKLLLLAVLGWLFQIPTVPEDLFFLEEGPSYAFEVDTVAPEHGLDNAPVVDQQLLYTCCPYIGELRKLLASWVSGSSGRSGGFMRKITPTTTTSLGAQPSQTSQGLQAQLAQAFFHNQPPSLRRTVEIVARRIGSNCVKHIKATLVADLVRQAESLLQEQLVTQGEEGGDPAQLLEILCSQLCPHGAQALALGREFCQRKSPGAVRALLPEETPAAVLSSAENIAVGLATEKACAWLSANITALIRREVKAAVSRTLRAQGPEPAARGERRGCSRACEHHAPLPSHLISEIKDVLSLAVGPRDPDEGVSPEHLEQLLGQLGQTLRCRQFLCPPAEQHLAKCSVELASLLVADQIPILGPPAQYRLERGQARRLLHMLLSLWKEDFQGPVPLQLLLSPRNVGLLADTRPREWDLLLFLLRELVEKGLMGRMEIEACLGSLHQAQWPGDFAEELATLSNLFLAEPHLPEPQLRACELVQPNRGTVLAQS | – | binds
CODANIN-1 P672L (CDA-I disease mutation) (natural protein) MAAVLESLLREEVSVAAVVRWIARSTQGSEDNAGEAAALSSLRALRKEFVPFLLNFLREQSSRVLPQGPPTPAKTPGASAALPGRPGGPPRGSRGARSQLFPPTEAQSTAAEAPLARRGGRRRGPGPARERGGRGLEEGVSGESLPGAGGRRLRGSGSPSRPSLTLSDPPNLSNLEEFPPVGSVPPGPTGTKPSRRINPTPVSEERSLSKPKTCFTSPPISCVPSSQPSALDTSPWGLGLPPGCRSLQEEREMLRKERSKQLQQSPTPTCPTPELGSPLPSRTGSLTDEPADPARVSSRQRLELVALVYSSCIAENLVPNLFLELFFVFQLLTARRMVTAKDSDPELSPAVLDSLESPLFQSIHDCVFFAVQVLECHFQVLSNLDKGTLKLLAENERLLCFSPALQGRLRAAYEGSVAKVSLVMPPSTQAVSFQPETDNRANFSSDRAFHTFKKQRDVFYEVLREWEDHHEEPGWDFEKGLGSRIRAMMGQLSAACSHSHFVRLFQKQLLQMCQSPGGAGGTVLGEAPDVLSMLGADKLGRLWRLQERLMAPQSSGGPCPPPTFPGCQGFFRDFILSASSFQFNQHLMDSLSLKIQELNGLALPQHEPNDEDGESDVDWQGERKQFAVVLLSLRLLAKFLGFVAFLPYRGPEPPPTGELQDSILALRSQVPLVLDVRTLLQRGLQARRAVLTVPWLVEFLSFADHVVPLLEYYRDIFTLLLRLHRSLVLSQESEGKMCFLNKLLLLAVLGWLFQIPTVPEDLFFLEEGPSYAFEVDTVAPEHGLDNAPVVDQQLLYTCCPYIGELRKLLASWVSGSSGRSGGFMRKITPTTTTSLGAQPSQTSQGLQAQLAQAFFHNQPPSLRRTVEFVAERIGSNCVKHIKATLVADLVRQAESLLQEQLVTQGEEGGDPAQLLEILCSQLCPHGAQALALGREFCQRKSPGAVRALLPEETPAAVLSSAENIAVGLATEKACAWLSANITALIRREVKAAVSRTLRAQGPEPAARGERRGCSRACEHHAPLPSHLISEIKDVLSLAVGPRDPDEGVSPEHLEQLLGQLGQTLRCRQFLCPPAEQHLAKCSVELASLLVADQIPILGPPAQYRLERGQARRLLHMLLSLWKEDFQGPVPLQLLLSPRNVGLLADTRPREWDLLLFLLRELVEKGLMGRMEIEACLGSLHQAQWPGDFAEELATLSNLFLAEPHLPEPQLRACELVQPNRGTVLAQS | 2 | –

— paper PMC11880193 (Nature Communications, 2025)
